In patent US20210163591A1 (TEL HASHOMER MEDICAL RESEARCH INFRASTRUCTURE AND SERVICES, published 2021):

Assays:
[1] = molecular target: T1, human GABRA2 (SEQ ID NO: 21) (human, UniProt P47869 29-251); test: Biacore SPR, antibody immobilized on CM5 chip, GABRA2 as analyte, single-dose kinetics
T1 construct: The Biacore method says only 'Diluted GABRA2'; I took it to be the same antigen; also called GABRA2 protein; human GABRA2 antigen
T1 sequence: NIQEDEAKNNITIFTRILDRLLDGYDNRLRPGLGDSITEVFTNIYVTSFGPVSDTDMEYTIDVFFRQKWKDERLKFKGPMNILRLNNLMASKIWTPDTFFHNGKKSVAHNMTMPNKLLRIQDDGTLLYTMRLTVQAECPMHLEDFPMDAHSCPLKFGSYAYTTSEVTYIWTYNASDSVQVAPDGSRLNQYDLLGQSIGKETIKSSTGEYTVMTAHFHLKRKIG
Experimental: (§1) Biacore analysis—Antibody was immobilized onto a CM5 sensor chip (Cat No. BR-1005-30) under 25° C. while HBS-EP was used as the running buffer. The sensor chip surface of flow cells 1 and 2 were activated by freshly mixed 50 mmol/1 N-Hydroxysuccinimide (NHS) and 200 mmol/I 1-ethyl-3-(3-dimethylaminopropyl) carbodiimide hydrochloride (EDC) for 200s ([…]). Afterwards, the antibody diluted in 10 mml/l NaAC (pH 4.5) was injected into flow cell 2 to achieve conjugation of 300 Response Unit respectively, while flow cell 1 was set as blank. After the amine coupling reaction, the remaining active coupling sites on chip surface were blocked with 200s injection of 1 mol/l ethanolamine hydrochloride. […] Diluted GABRA2 was injected over the surface as association phase, followed by injecting running buffer as dissociation phase. Data was processed using the Biacore 8K Evaluation software version 1.1. Flow cell 1 and blank injection of buffer in each cycle were used as double reference for Response Unit subtraction.

[2] = molecular target: T1, human GABRA2 (SEQ ID NO: 21); test: Biacore SPR, antibody immobilized on CM5 chip, GABRA2 as analyte, single-cycle kinetics
Experimental: as §1

B1: antibody U6882DH130_13, purified from hybridoma 10C5B9 (antibody, V domains shown)
VH: EVQLQQSGAELVKPGASVKLSCTASGFNIKDTYMYWVKQRPEQGLEWIGRIDPANGNTKYDPKFQGKATITADTSSNTAYLQLSSLTSEDTAVYYCASNYYGSFDYWGQGTTLTVSS
VL: DIQMTQTTSSLSASLGDRVTISCRASQDISNYLNWYQQKPDGTVKLLIYYTSRLHSGVPSRFSGSGSGTDYSLTISNLEQEDIATYFCQQGNTLPPTFGGGTKLEIK
notes: also called U6882DH130_13 Antibody; Antibody from clone10C5B9
Question: With B1 as the binder, how does the Kd [1] read?
Answer: 0.251 nM

Question: And the koff [1]?
Answer: 1.58e-05 s⁻¹

Question: What about the kon [1] of the same binder?
Answer: 62800 M⁻¹ s⁻¹

Question: And the Kd [2]?
Answer: 0.388 nM

Question: And the koff [2]?
Answer: 5.42e-05 s⁻¹

Question: What about the kon [2] of the same binder?
Answer: 140000 M⁻¹ s⁻¹
